Laboratory results as given in publication PMC10491584, “Structural convergence endows nuclear transport receptor Kap114p with a transcriptional repressor function toward TATA-binding protein” (Nature Communications, 2023).

Legend:
Kap114pΔ(932-941) = target: T1, Kap114pΔ(932-941) (S. cerevisiae, UniProt P53067 1-1004, Δ(932-941)); test: ITC; MicroCal iTC200, 25 °C, 20 mM HEPES pH 7.4, 150 mM NaCl; low concentration: 25 µM wild type or mutant Kap114p in the sample cell, 250 µM wild type or mutant yTBPC in the syringe; triplicate; conditions: both partners purified
T1 construct: also called GST-Kap114p (Δ932-941); source: E. coli Rosetta, purified (GST resin, MonoQ, Superdex 200)
T1 sequence (looked up): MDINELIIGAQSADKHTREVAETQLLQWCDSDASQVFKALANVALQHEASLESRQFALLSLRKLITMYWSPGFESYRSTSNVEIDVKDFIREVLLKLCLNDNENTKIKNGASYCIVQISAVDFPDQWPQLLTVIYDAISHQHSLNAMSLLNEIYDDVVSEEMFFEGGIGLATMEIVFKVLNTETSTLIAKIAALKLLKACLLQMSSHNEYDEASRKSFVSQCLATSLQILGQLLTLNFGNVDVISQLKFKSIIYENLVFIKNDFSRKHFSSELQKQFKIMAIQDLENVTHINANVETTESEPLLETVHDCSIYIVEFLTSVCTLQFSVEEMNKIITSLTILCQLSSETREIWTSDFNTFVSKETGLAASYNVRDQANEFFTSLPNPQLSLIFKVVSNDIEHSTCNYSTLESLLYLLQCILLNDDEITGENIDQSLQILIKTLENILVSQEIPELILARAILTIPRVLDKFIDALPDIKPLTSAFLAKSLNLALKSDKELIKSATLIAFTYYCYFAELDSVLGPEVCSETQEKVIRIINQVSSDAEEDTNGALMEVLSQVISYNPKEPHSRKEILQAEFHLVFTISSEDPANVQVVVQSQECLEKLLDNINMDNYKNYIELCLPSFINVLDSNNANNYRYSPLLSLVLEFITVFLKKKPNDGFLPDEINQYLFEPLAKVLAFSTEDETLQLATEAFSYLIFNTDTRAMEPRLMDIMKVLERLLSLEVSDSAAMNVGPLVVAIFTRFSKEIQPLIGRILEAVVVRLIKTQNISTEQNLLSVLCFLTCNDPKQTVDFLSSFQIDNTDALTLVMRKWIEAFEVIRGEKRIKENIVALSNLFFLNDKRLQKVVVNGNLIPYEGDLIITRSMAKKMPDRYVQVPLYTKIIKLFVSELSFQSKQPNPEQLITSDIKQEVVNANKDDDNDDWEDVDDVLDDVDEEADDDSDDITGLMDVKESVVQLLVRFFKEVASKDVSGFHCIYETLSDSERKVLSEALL

Kap114p wild type = target: T2, Kap114p wild type (S. cerevisiae, UniProt P53067 1-1004); test: as above; conditions: both partners purified
T2 construct: Kap114p (karyopherin-β), S. cerevisiae, full length, amplified from total genomic DNA; GST tag followed by a PreScission site (modified pGEX6p1); PreScission protease added during dialysis; also called Kap114p WT; GST-Kap114p (plasmid pGEX-6P-1-Kap114); source: E. coli Rosetta, purified (GST resin, MonoQ, Superdex 200)
T2 sequence (looked up): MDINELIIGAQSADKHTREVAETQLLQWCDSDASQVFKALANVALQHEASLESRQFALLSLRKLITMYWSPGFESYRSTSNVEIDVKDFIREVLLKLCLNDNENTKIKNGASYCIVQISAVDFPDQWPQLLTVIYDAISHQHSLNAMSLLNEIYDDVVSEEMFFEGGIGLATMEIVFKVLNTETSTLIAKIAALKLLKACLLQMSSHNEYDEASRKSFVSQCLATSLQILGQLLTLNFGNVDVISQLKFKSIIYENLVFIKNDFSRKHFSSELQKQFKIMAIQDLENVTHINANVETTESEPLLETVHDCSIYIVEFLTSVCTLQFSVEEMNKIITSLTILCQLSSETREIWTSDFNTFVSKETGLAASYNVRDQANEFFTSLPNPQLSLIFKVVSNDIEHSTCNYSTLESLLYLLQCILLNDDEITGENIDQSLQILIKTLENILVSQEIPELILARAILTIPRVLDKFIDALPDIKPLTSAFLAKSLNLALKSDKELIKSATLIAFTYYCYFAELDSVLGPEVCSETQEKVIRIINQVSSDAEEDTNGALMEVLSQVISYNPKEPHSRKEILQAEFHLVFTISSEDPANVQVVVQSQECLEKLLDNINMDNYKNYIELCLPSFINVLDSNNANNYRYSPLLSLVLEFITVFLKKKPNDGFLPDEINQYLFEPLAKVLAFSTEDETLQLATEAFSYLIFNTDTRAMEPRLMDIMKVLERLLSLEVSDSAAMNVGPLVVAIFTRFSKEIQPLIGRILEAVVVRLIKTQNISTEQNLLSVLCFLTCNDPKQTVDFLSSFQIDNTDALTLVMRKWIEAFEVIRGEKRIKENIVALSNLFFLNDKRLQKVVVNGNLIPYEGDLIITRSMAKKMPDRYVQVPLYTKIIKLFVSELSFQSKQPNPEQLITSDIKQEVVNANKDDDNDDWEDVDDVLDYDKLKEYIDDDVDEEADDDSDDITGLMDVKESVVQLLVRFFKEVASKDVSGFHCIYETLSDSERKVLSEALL

B1: yTBP^C wild type (core domain of yeast TATA-box binding protein, a.a. 61-240) (domain or fragment, S. cerevisiae, UniProt P13393 61-240, looked up)
chain: SGIVPTLQNIVATVTLGCRLDLKTVALHARNAEYNPKRFAAVIMRIREPKTTALIFASGKMVVTGAKSEDDSKLASRKYARIIQKIGFAAKFTDFKIQNIVGSCDVKFPIRLEGLAFSHGTFSSYEPELFPGLIYRMVKPKIVLLIFVSGKIVLTGAKQREEIYQAFEAIYPVLSEFRKM
notes: modified pET28a, 6xHis tag followed by a PreScission site; also called yTBPC WT; His-yTBP (61-240); source: E. coli Rosetta, purified (Ni-NTA, HiTrap SP, Superdex 75); not shown: His6, N-terminal, cleaved
Kd (Kap114pΔ(932-941)): 79.9 nM | Kd (Kap114p wild type): 1.4 nM
